{"source": "paper PMC10033410", "about": "(Nature, 2023)", "binders": {"B1": {"name": "HIV-1 HXB2 Vif (natural protein)", "chain": "not shown", "notes": "also called Vif_(HXB2)"}}, "biological_target": "T1, human APOBEC3G (human, UniProt Q9HC16 1-384)", "T1 construct": "also called A3G; hA3G; not shown: Strep-tag, C-terminal, kept", "T1 sequence (Q9HC16 whole entry)": "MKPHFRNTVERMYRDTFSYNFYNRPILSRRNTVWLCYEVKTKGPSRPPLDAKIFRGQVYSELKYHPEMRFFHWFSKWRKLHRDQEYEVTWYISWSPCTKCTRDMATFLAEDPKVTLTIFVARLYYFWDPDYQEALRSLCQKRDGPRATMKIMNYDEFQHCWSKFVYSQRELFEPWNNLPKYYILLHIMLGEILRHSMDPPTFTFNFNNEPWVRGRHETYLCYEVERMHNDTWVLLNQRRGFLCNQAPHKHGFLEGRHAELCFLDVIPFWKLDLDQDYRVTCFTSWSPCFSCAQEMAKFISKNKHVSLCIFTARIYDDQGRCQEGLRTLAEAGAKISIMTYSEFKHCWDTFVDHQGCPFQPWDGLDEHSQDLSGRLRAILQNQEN", "assay": "cryo-EM structure; single-particle cryo-EM of the co-expressed, co-purified complex (SEC peak fraction, 1.9 μM; 30 mM HEPES, 150 mM NaCl, 5% glycerol, 1 mM TCEP); co-purified insect-cell ssRNA between A3G and Vif; monomer map 2.7 Å, dimer states 1, 1' and 2", "conditions": "both partners purified", "data": [{"binder": "B1", "values": [{"measurement": "binding result", "value": "binds"}]}]}
